# Data as given in PMC3374832, “The Structure of the Oligomerization Domain of Lsr2 from Mycobacterium tuberculosis Reveals a Mechanism for Chromosome Organization and Protection” (PLoS ONE, 2012).
# B1: Lsr2 N-terminal dimerization domain, construct Nterm2 (residues 1-61), freshly purified (domain or fragment)
# chain: MAKKVTVTLVDDFDGSGAADETVEFGLDGVTYEIDLSTKNATKLRGDLKQWVAAGRRVGGR
# notes: Lsr2 (Rv3597c) of Mycobacterium tuberculosis H37Rv, residues 1-61; also called N-Lsr2; Lsr2 N-terminal domain; not shown: His6, N-terminal, kept
# Biological target: the molecule itself
# Experiment: SEC; S75 16/60GL or 10/300GL column, 20 mM tris-HCl pH 7.5, 150 mM NaCl; fresh sample, 14-week-old sample and sample treated with trypsin (1:500, 5 min, room temperature)
protein,measurement,value
B1,stoichiometry N,2
